Assay results taken from patent publication US20250002565A1.

Molecular target: recombinant HIV gp41 (HIV)
Test: ELISA against recombinant gp41 (in PBS)

- EC50: 1.29 µg/mL
B1: recombinant class switched IgA2 antibody (antibody, V domains shown)
VH: QVQLVESGGGVVQPGRSLRLSCAASGFTFSSYAIHWVRQAPGKGLEWVAVISYDGSNRYYADSVKGRFTISRDNSKNTLYLQMNSLRPEDTAVYYCARDRFSAVASTPTYHNYFYMDVWGKGTTVTVSS
